Test results taken from the supplement of paper PMC9170038.

Test system: MS2 coat protein
Test: apparent KD of MS2 coat protein; designed switch direction (-1 OFF switch, 1 ON switch): -1; higher = weaker reporter binding
Outline: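 Stalled E. coli RNA polymerase transcribed designed RNA switches on Illumina chips, which were then titrated with SNAP-549-labelled MS2 coat protein, doubling from 0.7 or 1.5 nM to 3 µM. Steps lasted from 0.8–1.5 h at the lowest concentration to 10–20 min at the highest. The apparent KD is each design's median over clusters of curve-fitted normalised fluorescence.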

[1] = Eterna round: R95, input ligand: FMN 200 uM
[2] = Eterna round: R95, input ligand: microRNA oligo, concentration not stated
[3] = Eterna round: R95, input ligand: none
[4] = input ligand: microRNA oligo, concentration not stated

Sequence | apparent KD of MS2 coat protein [1] [µM] | apparent KD of MS2 coat protein [2] [µM] | apparent KD of MS2 coat protein [3] [µM] | apparent KD of MS2 coat protein (input ligand: FMN 200 uM) [µM] | apparent KD of MS2 coat protein (input ligand: none) [µM] | apparent KD of MS2 coat protein [4] [µM]
UUUUAGAGAGGAUAUAUGAUGUGAAACAUGAGGAUCACCCAUGUAAUAUUAUGGAUGUAAAUAGAAGGCUCAUUUA [JL-ex5-3.05] (puzzle: Exclusion 5) | 0.0388 | 0.0633 | 0.0691 | – | – | –
UUUUAGUCAGGAUAUACAUGAGGAUCACCCAUGUAAACUUUUAGUUUAAUUUGAAUGUGUAGAAGGGACAUUUU [Ex3 #44] (Eterna round: R97, puzzle: Exclusion 3) | – | – | – | 0.0343 | 0.0254 | –
UUUUAUAGAGGAUAUGCGUGAAUAUAUAUUCAUGGAAAUUUACAUGAGGAUCACCCAUGUAGAAGGCUGUGUUU [LRO-Excl2-19-mod 090 by JR] (Eterna round: R97, puzzle: Exclusion 2) | – | – | – | 0.0141 | 0.0145 | –
UUUUCCUGGCAAGGAUAUCCUGUGCGGUUCCGGCUCGUGUCUGUUACAUGAGGAUCACCCAUGUGGGAGAAGGUGCCUGUGGUU [Design 89] (Eterna round: R96, puzzle: Exclusion NG 2) | – | – | – | 0.272 | 0.0417 | 0.0343
UUUUGAUGAGGAUAUCGAGGUUAGUACAUGAGGAUCACCCAUGUUAUCCAGGUGUCGGUUCGAGAAGGUAUUGGAC [LRO-Ex5-16] (puzzle: Exclusion 5) | – | 0.016 | – | – | – | –
UUUUGGCAUGUAGGAUAUGGGUCCGAUUAGGAUUUAGAAGGACAUGAGGAUCACCCAUGUGCAUUUAAUUGGUCUUUACCUUUU [EXclNG1-LROPPY12] (Eterna round: R96, puzzle: Exclusion NG 1) | – | – | – | 0.13 | 0.0825 | 0.0821
UUUUGGCAUGUAGGAUAUGGGUCCGAUUAGGAUUUAGAAGGACAUGAGGAUCACCCAUGUGCAUUUAAUUGGUCUUUACUUUUU [EXclNG1-LROPPY13] (Eterna round: R96, puzzle: Exclusion NG 1) | – | – | – | 0.115 | 0.0729 | 0.0612
UUUUUACAUGAGGAUCACCCAUGUGAGGAUAUGGAGCGCGACCGCGCGGUCGCGUACACCAGAAGGCGCAGGAU [1st #76] (Eterna round: R97, puzzle: Exclusion 1) | – | – | – | 0.0897 | 0.0466 | –
UUUUUAUAUGAAGGAUAUACUUAACAUGAGGAUCACCCAUGUGGUGUUGUGAGUGAGUGAGUUUAGUAGAAGGUCAAGAAUUUU [JMF's solution 34] (Eterna round: R96, puzzle: Exclusion NG 2) | – | – | – | 0.521 | 0.324 | 0.399
UUUUUAUAUGAAGGAUAUACUUAACAUGAGGAUCACCCAUGUGGUGUUGUGAGUGAGUGAGUUUAGUAGAAGGUCAAUGAUUUC [JMF's solution 64] (Eterna round: R96, puzzle: Exclusion NG 2) | – | – | – | 0.764 | 0.439 | 0.382
UUUUUAUAUGAAGGAUAUACUUAACAUGAGGAUCACCCAUGUGGUGUUGUGAGUGAGUGAGUUUAGUAGAAGGUCAAUUAUCUU [JMF's solution 14] (Eterna round: R96, puzzle: Exclusion NG 2) | – | – | – | 0.699 | 0.373 | 0.309
UUUUUAUAUGAAGGAUAUACUUAACAUGAGGAUCACCCAUGUGGUGUUGUGAGUGAGUGAGUUUAGUAGAAGGUCAGUUCUUUU [JMF's solution 79] (Eterna round: R96, puzzle: Exclusion NG 2) | – | – | – | 0.414 | 0.611 | 0.497
UUUUUCGAACAAGCUUCGUACAUGAGGAUCACCCAUGUCGGUAGAUUUGAGUAGGUUUGGAUGGAAGUUCGUCUUAU [JR_SV3TOV1_Sub086] (puzzle: Sensor v3, turn-off variant 1) | 0.0282 | 0.0659 | 0.0329 | – | – | –
UUUUUCGAACAAGCUUCGUACAUGAGGAUCACCCAUGUUGGUAGAUUUGAGUAGGUUUGGAUGUAAGCUCGUCUUAU [JR_SV3TOV1_Sub082] (puzzle: Sensor v3, turn-off variant 1) | 0.0987 | 0.313 | 0.129 | – | – | –
UUUUUGUGAGGAUAUACGUAGUAGAACAAUAGUACUACUACGUAGAAGGCACAUGAGGAUCACCCAUGUUCCUC [Fiskers Ex 4 Super stable 44 mod 14] (puzzle: Exclusion 4) | – | 0.0452 | – | – | – | –
UUUUUGUGAGGAUAUGGAAUAUCUUCUAUUUAUUAUUAAUUCCAGAAGGCACAUGAGGAUCACCCAUGUAUUUU [Ex4 - 3 - 35] (puzzle: Exclusion 4) | – | 0.0207 | – | – | – | –
UUUUUGUUUUUGUUUUUUGACAUGAGGAUCACCCAUGUCACGAGCAGAUCUUCAUGCAAGCUUUUUGCUCGUCUUAU [Sensor v3 - Turn-off variant 1 - 39] (puzzle: Sensor v3, turn-off variant 1) | 0.0628 | 0.0469 | 0.0833 | – | – | –
UUUUUUGUUGUGAGGAUAUCGUAUUUUUUUUGUUACGAGAAGGCACAUGAGGAUCACCCAUGUUUCUUGAUGUU [JR_BMOE4_Sub066] (puzzle: Brourd's mod of Exclusion 4) | – | 0.0168 | – | – | – | –
UUUUUUGUUGUGAGGAUAUCGUUUUUGUUUUGGAUCGAGAAGGCACAUGAGGAUCACCCAUGUUUGUUGUGGUU [JR_BMOE4_Sub087] (puzzle: Brourd's mod of Exclusion 4) | – | 0.0783 | – | – | – | –
UUUUUUUUGCGAGGAUAUGCUUUUAGUAAGUUAGCAGAAGGCGCGUUACAUAGAACCUCUUCUUACAUGAGGAUCACCCAUGUU [JR_ExcNG1_Sub035] (Eterna round: R96, puzzle: Exclusion NG 1) | – | – | – | 0.0956 | 0.0619 | 0.056
